Reference: patent publication US20050037448A1

Columns and labels:
human proinsulin (human) [1] = biological target: human proinsulin (human) (UniProt P01308); assay: competitive RIA, PEP001-coated tubes, 125I-Tyr-C-peptide; serum E1 overloaded with 0.16 pmol/ml proinsulin; no AC1D4
human proinsulin (human) [2] = biological target: human proinsulin (human) (UniProt P01308); assay: competitive RIA, PEP001-coated tubes, 125I-Tyr-C-peptide; serum E1 overloaded with 3.33 pmol/ml proinsulin; no AC1D4
human proinsulin (human) [3] = biological target: human proinsulin (human) (UniProt P01308); assay: competitive RIA, PEP001-coated tubes, 125I-Tyr-C-peptide; serum E2 overloaded with 0.67 pmol/ml proinsulin; no AC1D4
des-31,32-proinsulin [4] = biological target: des-31,32-proinsulin (UniProt P01308); assay: competitive RIA, PEP001-coated tubes, 125I-Tyr-C-peptide; serum E2 overloaded with 0.67 pmol/ml des-31,32-proinsulin; no AC1D4
human proinsulin (human) [5] = biological target: human proinsulin (human) (UniProt P01308); assay: competitive RIA, PEP001-coated tubes, 125I-Tyr-C-peptide; serum E1 overloaded with 0.67 pmol/ml proinsulin; competitor AC1D4 20 µg/ml
human proinsulin (human) [6] = biological target: human proinsulin (human) (UniProt P01308); assay: competitive RIA, PEP001-coated tubes, 125I-Tyr-C-peptide; serum E1 overloaded with 3.33 pmol/ml proinsulin; competitor AC1D4 20 µg/ml
human proinsulin (human) [7] = biological target: human proinsulin (human) (UniProt P01308); assay: competitive RIA, PEP001-coated tubes, 125I-Tyr-C-peptide; serum E2 overloaded with 0.16 pmol/ml proinsulin; competitor AC1D4 20 µg/ml
human proinsulin (human) [8] = biological target: human proinsulin (human) (UniProt P01308); assay: competitive RIA, PEP001-coated tubes, 125I-Tyr-C-peptide; serum E2 overloaded with 0.67 pmol/ml proinsulin; competitor AC1D4 20 µg/ml
des-31,32-proinsulin [9] = biological target: des-31,32-proinsulin (UniProt P01308); assay: sandwich immunoenzymatic C-peptide assay: PEP001 beads, goat polyclonal anti-C-peptide-alkaline phosphatase; competitor AC1D4 20 µg/ml
des-64,65-proinsulin [10] = biological target: des-64,65-proinsulin (UniProt P01308); assay: as above
human proinsulin (human) [11] = biological target: human proinsulin (human) (UniProt P01308); assay: as above
des-31,32-proinsulin [12] = biological target: des-31,32-proinsulin (UniProt P01308); assay: sandwich immunoenzymatic C-peptide assay: PEP001 beads, goat polyclonal anti-C-peptide-alkaline phosphatase; competitor BC9B6 20 µg/ml
des-64,65-proinsulin [13] = biological target: des-64,65-proinsulin (UniProt P01308); assay: as above
human proinsulin (human) [14] = biological target: human proinsulin (human) (UniProt P01308); assay: as above
des-31,32-proinsulin [15] = biological target: des-31,32-proinsulin (UniProt P01308); assay: competitive RIA, PEP001-coated tubes, 125I-Tyr-C-peptide; serum E1 overloaded with 0.16 pmol/ml des-31,32-proinsulin; competitor AC1D4 20 µg/ml
des-31,32-proinsulin [16] = biological target: des-31,32-proinsulin (UniProt P01308); assay: competitive RIA, PEP001-coated tubes, 125I-Tyr-C-peptide; serum E1 overloaded with 3.33 pmol/ml des-31,32-proinsulin; competitor AC1D4 20 µg/ml
des-31,32-proinsulin [17] = biological target: des-31,32-proinsulin (UniProt P01308); assay: competitive RIA, PEP001-coated tubes, 125I-Tyr-C-peptide; serum E2 overloaded with 0.16 pmol/ml des-31,32-proinsulin; competitor AC1D4 20 µg/ml
des-31,32-proinsulin [18] = biological target: des-31,32-proinsulin (UniProt P01308); assay: competitive RIA, PEP001-coated tubes, 125I-Tyr-C-peptide; serum E2 overloaded with 0.67 pmol/ml des-31,32-proinsulin; competitor AC1D4 20 µg/ml
des-31,32-proinsulin [19] = biological target: des-31,32-proinsulin (UniProt P01308); assay: competitive RIA, PEP001-coated tubes, 125I-Tyr-C-peptide; serum E2 overloaded with 3.33 pmol/ml des-31,32-proinsulin; competitor AC1D4 20 µg/ml
des-64,65-proinsulin [20] = biological target: des-64,65-proinsulin (UniProt P01308); assay: competitive RIA, PEP001-coated tubes, 125I-Tyr-C-peptide; serum E1 overloaded with 0.16 pmol/ml des-64,65-proinsulin; competitor AC1D4 20 µg/ml
des-64,65-proinsulin [21] = biological target: des-64,65-proinsulin (UniProt P01308); assay: competitive RIA, PEP001-coated tubes, 125I-Tyr-C-peptide; serum E1 overloaded with 3.33 pmol/ml des-64,65-proinsulin; competitor AC1D4 20 µg/ml
des-64,65-proinsulin [22] = biological target: des-64,65-proinsulin (UniProt P01308); assay: competitive RIA, PEP001-coated tubes, 125I-Tyr-C-peptide; serum E2 overloaded with 0.16 pmol/ml des-64,65-proinsulin; competitor AC1D4 20 µg/ml
des-31,32-proinsulin [23] = biological target: des-31,32-proinsulin (UniProt P01308); assay: sandwich immunoenzymatic C-peptide assay: PEP001 beads, goat polyclonal conjugate; competitors AC1D4 + BC9B6 in equal quantities, column head 2 µg/ml
des-64,65-proinsulin [24] = biological target: des-64,65-proinsulin (UniProt P01308); assay: as above
human proinsulin (human) [25] = biological target: human proinsulin (human) (UniProt P01308); assay: as above
des-31,32-proinsulin [26] = biological target: des-31,32-proinsulin (UniProt P01308); assay: sandwich immunoenzymatic C-peptide assay: PEP001 beads, goat polyclonal conjugate; competitors AC1D4 + BC9B6 in equal quantities, 10 µg/ml
des-64,65-proinsulin [27] = biological target: des-64,65-proinsulin (UniProt P01308); assay: as above
human proinsulin (human) [28] = biological target: human proinsulin (human) (UniProt P01308); assay: as above

## PEP001 anti-C-peptide monoclonal antibody
Human proinsulin (human) [1]
  Increase after overload (%): 15%
Human proinsulin (human) [2]
  Increase after overload (%): 288%
Human proinsulin (human) [3]
  Increase after overload (%): 12%
des-31,32-proinsulin [4]
  Increase after overload (%): 8%
Human proinsulin (human) [5]
  Increase after overload (%): 6%
Human proinsulin (human) [6]
  Increase after overload (%): 31%
Human proinsulin (human) [7]
  Increase after overload (%): 0%
Human proinsulin (human) [8]
  Increase after overload (%): 1%
des-31,32-proinsulin [9]
  percentage of cross reaction: 16%
des-64,65-proinsulin [10]
  percentage of cross reaction: 85%
Human proinsulin (human) [11]
  percentage of cross reaction: 8%
des-31,32-proinsulin [12]
  percentage of cross reaction: 115%
des-64,65-proinsulin [13]
  percentage of cross reaction: 8%
Human proinsulin (human) [14]
  percentage of cross reaction: 8%
des-31,32-proinsulin [15]
  Increase after overload (%): 5%
des-31,32-proinsulin [16]
  Increase after overload (%): 21%
des-31,32-proinsulin [17]
  Increase after overload (%): 0%
des-31,32-proinsulin [18]
  Increase after overload (%): 5%
des-31,32-proinsulin [19]
  Increase after overload (%): 6%
des-64,65-proinsulin [20]
  Increase after overload (%): 10%
des-64,65-proinsulin [21]
  Increase after overload (%): 242%
des-64,65-proinsulin [22]
  Increase after overload (%): 0%
des-31,32-proinsulin [23]
  percentage of cross reaction: 65%
des-64,65-proinsulin [24]
  percentage of cross reaction: 48%
Human proinsulin (human) [25]
  percentage of cross reaction: 23%
des-31,32-proinsulin [26]
  percentage of cross reaction: 30%
des-64,65-proinsulin [27]
  percentage of cross reaction: 18%
Human proinsulin (human) [28]
  percentage of cross reaction: 4%
